Data taken from patent publication US20130347134A1, “TRANSGENIC VON WILLEBRAND FACTOR ANIMALS AND USES THEREOF” (priority 2012, published 2013).
Each block holds one substance with its values, some of them ahead of it.

Legend:
[1] = target: human platelet glycoprotein Ib alpha (GPIb α) on human platelets (human) (UniProt P07359); assay: blocking in a parallel-plate flow chamber: human whole blood treated with mAb AP-1 perfused over surface-immobilized murine plasma VWF R1326H (the blocked ligand), shear rate 1,600 s^-1; about 4,600 without antibody
[2] = target: human platelet glycoprotein Ib alpha (GPIb α) on human platelets (human) (UniProt P07359); assay: cell-based or functional assay
[3] = target: human platelet glycoprotein Ib alpha (GPIb α) on human platelets (human) (UniProt P07359); assay: blocking in a parallel-plate flow chamber: human whole blood treated with mAb 6D1 perfused over surface-immobilized murine plasma VWF R1326H (the blocked ligand), shear rate 1,600 s^-1; about 4,600 without antibody
[4] = target: human platelet integrin αIIb β3 on human platelets (human) (UniProt P08514); assay: cell-based or functional assay
[5] = target: human platelet glycoprotein Ib alpha (GPIb α) on human platelets (human) (UniProt P07359); assay: translocation of human platelets on immobilized plasma VWF in flow
[6] = target: murine platelet glycoprotein Ib alpha (GPIb α) on mouse platelets (mouse) (UniProt O35930); assay: cell-based or functional assay
[7] = target: human platelet glycoprotein Ib alpha (GPIb α) on human platelets (human) (UniProt P07359); assay: human whole blood over immobilized protein, parallel-plate flow chamber, 1600 s^-1

murine platelet glycoprotein Ib alpha (GPIb α) on mouse platelets (mouse), sequence (O35930 17-734): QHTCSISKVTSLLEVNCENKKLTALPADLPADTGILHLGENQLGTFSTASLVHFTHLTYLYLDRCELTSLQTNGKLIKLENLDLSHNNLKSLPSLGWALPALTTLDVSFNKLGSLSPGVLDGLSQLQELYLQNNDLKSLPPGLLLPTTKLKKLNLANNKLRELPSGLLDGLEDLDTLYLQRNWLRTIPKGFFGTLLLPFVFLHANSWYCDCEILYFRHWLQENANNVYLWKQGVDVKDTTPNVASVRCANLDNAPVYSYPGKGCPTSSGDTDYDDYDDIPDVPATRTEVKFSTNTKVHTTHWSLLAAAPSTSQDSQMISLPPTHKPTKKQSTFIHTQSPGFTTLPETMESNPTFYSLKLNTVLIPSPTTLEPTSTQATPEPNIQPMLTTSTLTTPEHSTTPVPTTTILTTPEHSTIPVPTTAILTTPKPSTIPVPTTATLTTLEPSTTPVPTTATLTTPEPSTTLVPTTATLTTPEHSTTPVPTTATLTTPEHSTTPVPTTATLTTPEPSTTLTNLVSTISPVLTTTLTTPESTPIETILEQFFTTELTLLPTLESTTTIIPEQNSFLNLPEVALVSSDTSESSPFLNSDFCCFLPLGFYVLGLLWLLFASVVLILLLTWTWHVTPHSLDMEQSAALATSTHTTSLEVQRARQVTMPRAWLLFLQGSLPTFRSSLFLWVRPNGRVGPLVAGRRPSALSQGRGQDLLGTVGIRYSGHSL

- Human platelet accumulation/mm2 [1]: 0 /mm2
- human platelet thrombus size in VWF^1326R>H mice after pre-treatment with the mAb [2]: 198 µm^2
Substance: GPIb α function-blocking antibody AP-1

- Human platelet accumulation/mm2 [3]: 0 /mm2
- human platelet thrombus size in VWF^1326R>H mice after pre-treatment with the mAb [2]: 265 µm^2
Substance: function-blocking monoclonal antibody 6D1 (anti-human GPIb α)

- platelet deposition relative to same-species control [7]: 10%
- ristocetin-induced platelet aggregation (RIPA), murine PRP, 2.5 mg/ml ristocetin [6]: 30%
- share of human platelets in total thrombus area, WT mice [2]: 5.7%
Substance: murine plasma von Willebrand factor (VWF), wild type, Q8CIZ8 764-2813

Second part, the substance before the results:

Substance: function-blocking monoclonal antibody 7E3 (anti-human αIIb β3)
- human platelet thrombus size in VWF^1326R>H mice after pre-treatment with the mAb [4]: 529 µm^2

Substance: murine plasma VWF containing the 1326R>H mutation (VWF^1326R>H), Q8CIZ8 764-2813
- translocation velocity of human platelets [5]: 3.5 µm/sec
- increase in tail bleeding time, heterozygous animals versus WT [6]: 1.9 fold
- reduction in thrombi formed on collagen, whole blood of knock-in mice, 1600 s^-1 [6]: 70%
- reduction in thrombus formation on surface-immobilized collagen, whole blood of homozygous mutant mice (FIG. 26) [6]: 80%
- average thrombus size, human platelets in homozygous VWF^1326R>H mice [2]: 8950 µm^2
- share of human cells in thrombi, laser injury in homozygous VWF^1326R>H mice [2]: 91.7%
- tail bleeding time of VWF^1326R>H mice infused with human platelets [2]: 182 s
